# T1: FcγRIIb extracellular domain with C-terminal His tag (human, UniProt P31994 43-217)
# T1 construct: extracellular domain; For crystals it was expressed with kifunensine and trimmed with Endo F1; also called FcgRIIb; FcγRIIb extracellular region
# T1 sequence (looked up): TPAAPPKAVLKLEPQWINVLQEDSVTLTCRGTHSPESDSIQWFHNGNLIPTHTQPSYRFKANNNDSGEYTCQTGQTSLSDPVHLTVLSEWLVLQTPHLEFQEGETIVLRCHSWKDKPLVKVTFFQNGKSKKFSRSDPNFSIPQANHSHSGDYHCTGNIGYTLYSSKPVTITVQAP
# Biological target: T1, FcγRIIb extracellular domain with …
# Assay: SPR (Biacore)
Binder,binding result,binding relative to IL6R-B3/IL6R-L
"IL6R-BP544/IL6R-L (antibody, human IgG1, kappa) heavy: QVQLQESGPGLVKPSETLSLTCAVSGHSISHDHAWSWVRQPPGEGLEWIGFISYSGITNYNPSLQGRVTISRDNSKNTLYLQMNSLRAEDTAVYYCARSLARTTAMDYWGEGTLVTVSSASTKGPSVFPLAPSSKSTSGGTAALGCLVKDYFPEPVTVSWNSGALTSGVHTFPAVLQSSGLYSLSSVVTVPSSSLGTQTYICNVNHKPSNTKVDKKVEPKSCDKTHTCPPCPAPDLLGDDSVFLFPPKPKDTLMISRTPEVTCVVVDVSDEDGEVKFNWYVDGVEVHNAKTKPREEQDNSTYRVVSVLTVLHQDWLNGKEYKCKVSNKALPRPIEKTISKAKGQPREPQVYTLPPSQDELTKNQVSLTCLVKGFYPSDIAVEWESNGQPENNYKTTPPVLDSDGSFFLYSKLTVDKSRWQQGNVFSCSVMHEALHNHYTQESLSLSP light: not shown",binds,
"variant resulting from adding V266M to IL6R-BP267/IL6R-L (antibody, human IgG1, kappa) heavy: QVQLQESGPGLVKPSETLSLTCAVSGHSISHDHAWSWVRQPPGEGLEWIGFISYSGITNYNPSLQGRVTISRDNSKNTLYLQMNSLRAEDTAVYYCARSLARTTAMDYWGEGTLVTVSSASTKGPSVFPLAPSSKSTSGGTAALGCLVKDYFPEPVTVSWNSGALTSGVHTFPAVLQSSGLYSLSSVVTVPSSSLGTQTYICNVNHKPSNTKVDKKVEPKSCDKTHTCPPCPAPDLLGDDSVFLFPPKPKDTLMISRTPEVTCVVVDMSEEDGEVKFNWYVDGVEVHNAKTKPREEQYNSTYRVVSVLTVLHQDWLNGKEYKCKVSNKALPAPIEKTISKAKGQPREPQVYTLPPSRDELTKNQVSLTCLVKGFYPSDIAVEWESNGQPENNYKTTPPVLDSDGSFFLYSKLTVDKSRWQQGNVFSCSVMHEALHNHYTQESLSLSP light: not shown",binds,
"variant resulting from adding S267E to IL6R-BP267/IL6R-L (antibody, human IgG1, kappa) heavy: QVQLQESGPGLVKPSETLSLTCAVSGHSISHDHAWSWVRQPPGEGLEWIGFISYSGITNYNPSLQGRVTISRDNSKNTLYLQMNSLRAEDTAVYYCARSLARTTAMDYWGEGTLVTVSSASTKGPSVFPLAPSSKSTSGGTAALGCLVKDYFPEPVTVSWNSGALTSGVHTFPAVLQSSGLYSLSSVVTVPSSSLGTQTYICNVNHKPSNTKVDKKVEPKSCDKTHTCPPCPAPDLLGDDSVFLFPPKPKDTLMISRTPEVTCVVVDVEEEDGEVKFNWYVDGVEVHNAKTKPREEQYNSTYRVVSVLTVLHQDWLNGKEYKCKVSNKALPAPIEKTISKAKGQPREPQVYTLPPSRDELTKNQVSLTCLVKGFYPSDIAVEWESNGQPENNYKTTPPVLDSDGSFFLYSKLTVDKSRWQQGNVFSCSVMHEALHNHYTQESLSLSP light: not shown",binds,
"IL6R-BP559/IL6R-L (antibody, human IgG1, kappa) heavy: QVQLQESGPGLVKPSETLSLTCAVSGHSISHDHAWSWVRQPPGEGLEWIGFISYSGITNYNPSLQGRVTISRDNSKNTLYLQMNSLRAEDTAVYYCARSLARTTAMDYWGEGTLVTVSSASTKGPSVFPLAPSSKSTSGGTAALGCLVKDYFPEPVTVSWNSGALTSGVHTFPAVLQSSGLYSLSSVVTVPSSSLGTQTYICNVNHKPSNTKVDKKVEPKSCDKTHTCPPCPAPELLGGDSVFLFPPKPKDTLMISRTPEVTCVVIDVAEEDGDVKFNWYVDGVEVHNAKTKPREEQDNSTYRVVSVLTVLHQDWLNGKEYKCKVSNKALPAPIEKTISKAKGQPREPQVYTLPPSRDELTKNQVSLTCLVKGFYPSDIAVEWESNGQPENNYKTTPPVLDSDGSFFLYSKLTVDKSRWQQGNVFSCSVMHEALHNHYTQESLSLSP light: not shown",,≥ 100 times
"variant resulting from adding S267G to IL6R-BP267/IL6R-L (antibody, human IgG1, kappa) heavy: QVQLQESGPGLVKPSETLSLTCAVSGHSISHDHAWSWVRQPPGEGLEWIGFISYSGITNYNPSLQGRVTISRDNSKNTLYLQMNSLRAEDTAVYYCARSLARTTAMDYWGEGTLVTVSSASTKGPSVFPLAPSSKSTSGGTAALGCLVKDYFPEPVTVSWNSGALTSGVHTFPAVLQSSGLYSLSSVVTVPSSSLGTQTYICNVNHKPSNTKVDKKVEPKSCDKTHTCPPCPAPDLLGDDSVFLFPPKPKDTLMISRTPEVTCVVVDVGEEDGEVKFNWYVDGVEVHNAKTKPREEQYNSTYRVVSVLTVLHQDWLNGKEYKCKVSNKALPAPIEKTISKAKGQPREPQVYTLPPSRDELTKNQVSLTCLVKGFYPSDIAVEWESNGQPENNYKTTPPVLDSDGSFFLYSKLTVDKSRWQQGNVFSCSVMHEALHNHYTQESLSLSP light: not shown",binds,
"variant resulting from adding E269D to IL6R-BP267/IL6R-L (antibody, human IgG1, kappa) heavy: QVQLQESGPGLVKPSETLSLTCAVSGHSISHDHAWSWVRQPPGEGLEWIGFISYSGITNYNPSLQGRVTISRDNSKNTLYLQMNSLRAEDTAVYYCARSLARTTAMDYWGEGTLVTVSSASTKGPSVFPLAPSSKSTSGGTAALGCLVKDYFPEPVTVSWNSGALTSGVHTFPAVLQSSGLYSLSSVVTVPSSSLGTQTYICNVNHKPSNTKVDKKVEPKSCDKTHTCPPCPAPDLLGDDSVFLFPPKPKDTLMISRTPEVTCVVVDVSEDDGEVKFNWYVDGVEVHNAKTKPREEQYNSTYRVVSVLTVLHQDWLNGKEYKCKVSNKALPAPIEKTISKAKGQPREPQVYTLPPSRDELTKNQVSLTCLVKGFYPSDIAVEWESNGQPENNYKTTPPVLDSDGSFFLYSKLTVDKSRWQQGNVFSCSVMHEALHNHYTQESLSLSP light: not shown",binds,
"IL6R-BP545/IL6R-L (antibody, human IgG1, kappa) heavy: QVQLQESGPGLVKPSETLSLTCAVSGHSISHDHAWSWVRQPPGEGLEWIGFISYSGITNYNPSLQGRVTISRDNSKNTLYLQMNSLRAEDTAVYYCARSLARTTAMDYWGEGTLVTVSSASTKGPSVFPLAPSSKSTSGGTAALGCLVKDYFPEPVTVSWNSGALTSGVHTFPAVLQSSGLYSLSSVVTVPSSSLGTQTYICNVNHKPSNTKVDKKVEPKSCDKTHTCPPCPAPDLLGDDSVFLFPPKPKDTLMISRTPEVTCVVVDVSDEDGEVKFNWYVDGVEVHNAKTKPREEQDNSTYRVVSVLTVLHQDWLNGKEYKCKVSNKALPRPIEKTISKAKGQPREPQVYTLPPSREELTKNQVSLTCLVKGFYPSDIAVEWESNGQPENNYKTTPPVLDSDGSFFLYSKLTVDKSRWQQGNVFSCSVMHEALHNHYTQESLSLSP light: not shown",binds,

# Second part, the binder after the results:
binding result,binding relative to IL6R-B3/IL6R-L,Binder
binds,,"IL6R-BP546/IL6R-L (antibody, human IgG1, kappa) heavy: QVQLQESGPGLVKPSETLSLTCAVSGHSISHDHAWSWVRQPPGEGLEWIGFISYSGITNYNPSLQGRVTISRDNSKNTLYLQMNSLRAEDTAVYYCARSLARTTAMDYWGEGTLVTVSSASTKGPSVFPLAPSSKSTSGGTAALGCLVKDYFPEPVTVSWNSGALTSGVHTFPAVLQSSGLYSLSSVVTVPSSSLGTQTYICNVNHKPSNTKVDKKVEPKSCDKTHTCPPCPAPDLLGDDSVFLFPPKPKDTLMISRTPEVTCVVVDVSDEDGEVKFNWYVDGVEVHNAKTKPREEQDNSTYRVVSVLTVLHQDWLNGKEYKCKVSNKALPRPIEKTISKAKGQPREPQVYTLPPSRDEMTKNQVSLTCLVKGFYPSDIAVEWESNGQPENNYKTTPPVLDSDGSFFLYSKLTVDKSRWQQGNVFSCSVMHEALHNHYTQESLSLSP light: not shown"
binds,,"variant resulting from adding V266F to IL6R-BP267/IL6R-L (antibody, human IgG1, kappa) heavy: QVQLQESGPGLVKPSETLSLTCAVSGHSISHDHAWSWVRQPPGEGLEWIGFISYSGITNYNPSLQGRVTISRDNSKNTLYLQMNSLRAEDTAVYYCARSLARTTAMDYWGEGTLVTVSSASTKGPSVFPLAPSSKSTSGGTAALGCLVKDYFPEPVTVSWNSGALTSGVHTFPAVLQSSGLYSLSSVVTVPSSSLGTQTYICNVNHKPSNTKVDKKVEPKSCDKTHTCPPCPAPDLLGDDSVFLFPPKPKDTLMISRTPEVTCVVVDFSEEDGEVKFNWYVDGVEVHNAKTKPREEQYNSTYRVVSVLTVLHQDWLNGKEYKCKVSNKALPAPIEKTISKAKGQPREPQVYTLPPSRDELTKNQVSLTCLVKGFYPSDIAVEWESNGQPENNYKTTPPVLDSDGSFFLYSKLTVDKSRWQQGNVFSCSVMHEALHNHYTQESLSLSP light: not shown"
,≥ 100 times,"IL6R-BP567/IL6R-L (antibody, human IgG1, kappa) heavy: QVQLQESGPGLVKPSETLSLTCAVSGHSISHDHAWSWVRQPPGEGLEWIGFISYSGITNYNPSLQGRVTISRDNSKNTLYLQMNSLRAEDTAVYYCARSLARTTAMDYWGEGTLVTVSSASTKGPSVFPLAPSSKSTSGGTAALGCLVKDYFPEPVTVSWNSGALTSGVHTFPAVLQSSGLYSLSSVVTVPSSSLGTQTYICNVNHKPSNTKVDKKVEPKSCDKTHTCPPCPAPDLLGGDSVFLFPPKPKDTLMISRTPEVTCVVIDVAEEDGEVKFNWYVDGVEVHNAKTKPREEQDNSTYRVVSVLTVLHQDWLNGKEYKCKVSNKALPAPIEKTISKAKGQPREPQVYTLPPSRDELTKNQVSLTCLVKGFYPSDIAVEWESNGQPENNYKTTPPVLDSDGSFFLYSKLTVDKSRWQQGNVFSCSVMHEALHNHYTQESLSLSP light: not shown"
binds,,"variant resulting from adding V264I to IL6R-BP267/IL6R-L (antibody, human IgG1, kappa) heavy: QVQLQESGPGLVKPSETLSLTCAVSGHSISHDHAWSWVRQPPGEGLEWIGFISYSGITNYNPSLQGRVTISRDNSKNTLYLQMNSLRAEDTAVYYCARSLARTTAMDYWGEGTLVTVSSASTKGPSVFPLAPSSKSTSGGTAALGCLVKDYFPEPVTVSWNSGALTSGVHTFPAVLQSSGLYSLSSVVTVPSSSLGTQTYICNVNHKPSNTKVDKKVEPKSCDKTHTCPPCPAPDLLGDDSVFLFPPKPKDTLMISRTPEVTCVVIDVSEEDGEVKFNWYVDGVEVHNAKTKPREEQYNSTYRVVSVLTVLHQDWLNGKEYKCKVSNKALPAPIEKTISKAKGQPREPQVYTLPPSRDELTKNQVSLTCLVKGFYPSDIAVEWESNGQPENNYKTTPPVLDSDGSFFLYSKLTVDKSRWQQGNVFSCSVMHEALHNHYTQESLSLSP light: not shown"
binds,,"variant resulting from adding S267A to IL6R-BP267/IL6R-L (antibody, human IgG1, kappa) heavy: QVQLQESGPGLVKPSETLSLTCAVSGHSISHDHAWSWVRQPPGEGLEWIGFISYSGITNYNPSLQGRVTISRDNSKNTLYLQMNSLRAEDTAVYYCARSLARTTAMDYWGEGTLVTVSSASTKGPSVFPLAPSSKSTSGGTAALGCLVKDYFPEPVTVSWNSGALTSGVHTFPAVLQSSGLYSLSSVVTVPSSSLGTQTYICNVNHKPSNTKVDKKVEPKSCDKTHTCPPCPAPDLLGDDSVFLFPPKPKDTLMISRTPEVTCVVVDVAEEDGEVKFNWYVDGVEVHNAKTKPREEQYNSTYRVVSVLTVLHQDWLNGKEYKCKVSNKALPAPIEKTISKAKGQPREPQVYTLPPSRDELTKNQVSLTCLVKGFYPSDIAVEWESNGQPENNYKTTPPVLDSDGSFFLYSKLTVDKSRWQQGNVFSCSVMHEALHNHYTQESLSLSP light: not shown"

# — patent US20210261648A1 (published 2021)
